These results are taken from paper PMC3338420.

The target of one experiment is SNX18 (Homo sapiens) (UniProt Q96RF0). To be noted: cited from earlier work.
Experiment [1] deals with Rab6a/RPRdel complex (Rab6a with RUN1-PLAT-RUN2 of DENND5A, loop 813–835 deleted) (human | mouse) (UniProt P20340). As to the kind of experiment: SPR; Biacore X-100, 293 K; Rab6/RPRdel or Rab6/RPdel amine-coupled to a CM5 chip (about 2,500 RU); SNX1 fragments as analytes, 0.2 to 40 µM; 100 mM NaCl, 1 mM DTT, 0.005% P20, 10 mM HEPES pH 8.0; multi-cycle; equilibrium KD from a 1:1 model. For orientation: In SPR one partner is held on a chip, and binding of the other changes the refractive index at the surface.
Chain of UniProt P20340 (P20340 8-195 Q72L, chain 1 of 2): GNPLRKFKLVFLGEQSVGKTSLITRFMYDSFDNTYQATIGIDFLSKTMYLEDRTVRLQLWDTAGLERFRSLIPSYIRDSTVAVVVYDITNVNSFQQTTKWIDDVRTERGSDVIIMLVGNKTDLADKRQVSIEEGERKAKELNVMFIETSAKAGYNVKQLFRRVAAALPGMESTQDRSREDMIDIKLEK
Chain of UniProt P20340 (Q6PAL8 other isoform, or with tags, fused parts or gaps, chain 2 of 2, further chain): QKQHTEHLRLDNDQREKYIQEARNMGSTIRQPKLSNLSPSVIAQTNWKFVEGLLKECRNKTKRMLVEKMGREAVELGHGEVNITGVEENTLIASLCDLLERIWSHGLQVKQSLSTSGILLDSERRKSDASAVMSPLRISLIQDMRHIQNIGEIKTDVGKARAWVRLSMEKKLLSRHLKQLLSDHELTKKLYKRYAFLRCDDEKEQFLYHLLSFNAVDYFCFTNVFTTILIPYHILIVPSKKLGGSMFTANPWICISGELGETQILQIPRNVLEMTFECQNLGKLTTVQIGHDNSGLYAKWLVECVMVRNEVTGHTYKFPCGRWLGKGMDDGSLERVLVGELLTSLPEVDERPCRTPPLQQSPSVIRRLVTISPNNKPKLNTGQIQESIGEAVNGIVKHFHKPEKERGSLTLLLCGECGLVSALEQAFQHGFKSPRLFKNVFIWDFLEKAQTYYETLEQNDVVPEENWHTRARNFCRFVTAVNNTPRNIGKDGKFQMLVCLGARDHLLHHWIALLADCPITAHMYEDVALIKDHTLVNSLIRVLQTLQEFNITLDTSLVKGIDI

Chain of UniProt Q96RF0 (Q96RF0 whole entry, the tested form may be a part): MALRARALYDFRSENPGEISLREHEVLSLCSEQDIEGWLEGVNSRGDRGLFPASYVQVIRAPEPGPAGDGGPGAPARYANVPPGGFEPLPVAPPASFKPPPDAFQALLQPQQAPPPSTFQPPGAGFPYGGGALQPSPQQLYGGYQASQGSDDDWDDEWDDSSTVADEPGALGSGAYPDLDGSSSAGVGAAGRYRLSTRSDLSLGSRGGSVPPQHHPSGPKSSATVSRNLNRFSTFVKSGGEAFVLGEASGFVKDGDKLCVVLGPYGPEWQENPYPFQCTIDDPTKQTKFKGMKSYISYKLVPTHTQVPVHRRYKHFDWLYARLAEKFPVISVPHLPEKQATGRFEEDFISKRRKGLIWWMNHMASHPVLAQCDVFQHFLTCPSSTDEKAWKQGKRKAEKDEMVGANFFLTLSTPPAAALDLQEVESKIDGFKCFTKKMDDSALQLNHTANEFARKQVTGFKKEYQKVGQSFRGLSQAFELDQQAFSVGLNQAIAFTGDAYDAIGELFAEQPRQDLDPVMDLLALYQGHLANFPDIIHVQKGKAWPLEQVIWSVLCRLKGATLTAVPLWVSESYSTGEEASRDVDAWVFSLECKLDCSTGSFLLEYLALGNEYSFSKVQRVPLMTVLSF

With FIP5 (from UniProt Q9BXF6), the Kd (usually the equilibrium constant for the complex coming apart) in the experiment with SNX18 (Homo sapiens) is 1600 nM.

“SNX1 SNX-PX (9–303) (from UniProt Q9WV80 9-303) (domain or fragment)” yielded a Kd in experiment [1] of 1700 nM.
